Experimental data taken from patent US20110117017A1, “PEPTIDES WITH PROPERTIES OF AN […] FOR THE ALPHA 1A […] RECEPTOR AND USES THEREOF” (priority 2006, published 2011).

Biological target: T1, alpha1a adrenergic receptor (Homo sapiens, UniProt P35348)
T1 sequence (P35348 1-466): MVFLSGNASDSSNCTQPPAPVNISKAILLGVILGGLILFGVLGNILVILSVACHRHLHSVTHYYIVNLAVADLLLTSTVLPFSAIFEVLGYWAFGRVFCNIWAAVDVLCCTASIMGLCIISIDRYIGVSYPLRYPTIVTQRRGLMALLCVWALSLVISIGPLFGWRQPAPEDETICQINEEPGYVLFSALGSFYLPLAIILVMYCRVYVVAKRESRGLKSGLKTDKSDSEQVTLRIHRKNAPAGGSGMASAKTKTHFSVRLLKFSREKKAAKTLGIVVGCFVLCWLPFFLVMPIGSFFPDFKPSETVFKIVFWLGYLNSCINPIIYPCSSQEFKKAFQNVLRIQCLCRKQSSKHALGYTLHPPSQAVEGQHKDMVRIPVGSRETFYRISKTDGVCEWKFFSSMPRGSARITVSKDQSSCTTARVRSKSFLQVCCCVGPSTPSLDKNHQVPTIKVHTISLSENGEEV
Experiment: hot saturation of 125I-AdTx1 on yeast membranes expressing the alpha1a adrenergic receptor
Conditions: read-out: high-affinity specific binding (saturation) to the alpha1a adrenergic receptor; 20 μg yeast membranes, 20 h
Procedure: The analysis of the saturation of the alpha1a adrenergic receptor with AdTx1 is carried out by incubating increasing concentrations of the iodinated peptide in the presence of 20 μg of membranes containing the alpha1a adrenergic receptor, for 20 h, and then measuring the radioactivity as above.

B1: ^125I-AdTx1: radiolabeled (iodinated) AdTx1 peptide (peptide)
peptide: LTCVTSKSIFGITTEDCPDGQNLCFKRRHYVVPKIYDSTRGCAATCPIPENYDSIHCCKTDKCNE
modifications: also: radioiodinated (125I), place not given here
- Kd: 0.8 ± 0.2 nM
